Results published in US20240101668A1 (WUGEN, published 2024).
Where a chain is given by its changes, count along the chain named.

B1: Polypeptide No. 16 (scFv, V domains shown)
VH: EVQLVESGGGLVKPGGSLRLSCAASGFTFSDNSMNWVRQAPGKGLEWVSYISSSGSTIYYADSVKGRFTISRDDSKNTLYLQMNSLKTEDTAVYYCARGRASSWPNWFDPWGQGTLVTVSS
VL: DIVMTQSPLSLPVTPGEPASISCRSSQSLLHSNGYNYLDWYLQKPGQSPQLLIYSASNLQSGVPDRFSGSGSGTDFTLKISRVEAEDVGVYYCMQALQTPPTFGQGTKLEIKR
notes: scFv
B2: Polypeptide No. 12 (scFv, V domains shown)
VH: EVQLLESGGGLVQPGGSLRLSCAASGFTFSSHWMSWVRQAPGKGLEWVSAISGSGGSTYYADSVKGRFTISRDNSKNTLYLQMNSLRAEDTAVYYCARDDNSGSQADWGQGTLVTVSS
VL: DIQMTQSPSSLSASVGDRVTITCQASQDIDNYLNWYQQKPGKAPKLLIYDASNLETGVPSRFSGSGSGTDFTLTISSLQPEDFATYYCQQSYSTPLTFGGGTKLEIKR
notes: scFv
B3: Polypeptide No. 17 (scFv, V domains shown)
VH: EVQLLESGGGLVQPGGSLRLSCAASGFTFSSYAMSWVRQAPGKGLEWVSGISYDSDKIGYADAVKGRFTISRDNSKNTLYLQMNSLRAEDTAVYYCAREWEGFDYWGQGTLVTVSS
VL: B2 VL with Q24R, D28G, D30S, Y32N, D50E, A51S, N53T, T94A, L104V
notes: scFv
B4: Polypeptide No. 21 (scFv, V domains shown)
VH: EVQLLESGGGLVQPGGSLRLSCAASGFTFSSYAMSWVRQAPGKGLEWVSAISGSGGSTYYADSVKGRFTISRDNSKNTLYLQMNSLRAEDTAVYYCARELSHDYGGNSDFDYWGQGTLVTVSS
VL: B2 VL with D30S, Y32N, D50A, N53G, E55Q, T56S, S91A, Y92N, T94F, L104V
notes: scFv
B5: Polypeptide No. 23 (scFv, V domains shown)
VH: QVQLVQSGAEVKKPGASVKVSCKASGYPFTAHYIHWVRQAPGQGLEWMGWINPNSGGTNYAQKFQGRVTMTRDTSTSTVYMELSSLRSEDTAVYYCARDVEMATIGAYWYFDLWGRGTLVTVSS
VL: B2 VL with Q24R, D28G, D30N, Y32W, N34A, S91A, Y92N, T94F, L96P, G100Q
notes: scFv
B6: Polypeptide No. 19 (scFv, V domains shown)
VH: EVQLLESGGGLVQPGGSLRLSCAASGFTFSSYWMHWVRQAPGKGLEWVSGFSGSARTYYADSVKGRFTISRDNSKNTLYLQMNSLRAEDTAVYYCAREWSGFDYWGQGTLVTVSS
VL: DIQMTQSPSSLSASVGDRVTITCRASQNIGPWLAWYQQKPGKAPKLLIYDAKDLHPGVPSRFSGSGSGTDFTLTISSLQPEDFATYYCQQANTFPMTFGQGTRLEIKR
notes: scFv
B7: Polypeptide No. 18 (scFv, V domains shown)
VH: QVQLVQSGAEVKKPGASVKVSCKASGYTFTDHYMHWVRQAPGQGLEWMGWINPNSGGTNYAQKFQGRVTMTRDTSTSTVYMELSSLRSEDTAVYYCAKDKFGDEGSGWYGDFQHWGQGTLVTVSS
VL: not shown
notes: scFv
B8: Polypeptide No. 15 (scFv, V domains shown)
VH: EVQLLESGGGLVQPGGSLRLSCAASGFTFSIYEIHWVRQAPGKGLEWVSAISGSGGSTYYADSVKGRFTISRDNSKNTLYLQMNSLRAEDTAVYYCARSYCGGDCWDYYYYYGMDVWGQGTTVTVSS
VL: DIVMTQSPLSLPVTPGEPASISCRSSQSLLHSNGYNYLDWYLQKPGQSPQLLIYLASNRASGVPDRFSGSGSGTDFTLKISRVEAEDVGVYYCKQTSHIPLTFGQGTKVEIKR
notes: scFv
B9: Polypeptide No. 14 (scFv, V domains shown)
VH: QVQLVQSGAEVKKPGASVKVSCKASGYTFTGYYMHWVRQAPGQGLEWMGIINPSGGSTSYAQKFQGRVTMTRDTSTSTVYMELSSLRSEDTAVYYCARAAPYYYDSSGYYSGGYYFDYWGQGTLVTVSS
VL: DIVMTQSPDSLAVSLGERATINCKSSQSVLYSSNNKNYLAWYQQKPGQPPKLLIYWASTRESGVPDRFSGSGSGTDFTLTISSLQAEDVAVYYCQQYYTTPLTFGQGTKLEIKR
notes: scFv
B10: Polypeptide No. 13 (scFv, V domains shown)
VH: QVQLVQSGAEVKKPGASVKVSCKASGYSFTGYYMHWVRQAPGQGLEWMGWINPNSGGTYFAQNFQGRVTMTRDTSTSTVYMELSSLRSEDTAVYYCVKDRGDRVVTSYLDYWGQGTLVTVSS
VL: DIQMTQSPSSLSASVGDRVTITCRASQGIRNWLAWYQQKPGKAPKLLIYAASSLQSGVPSRFSGSGSGTDFTLTISSLQPEDFATYYCQQSYRTPYTFGQGTKLEIKR
notes: scFv
B11: Polypeptide No. 1 (scFv, V domains shown)
VH: QVQLVQSGAEVKKPGASVKVSCKASGYSFTGYYIHWVRQAPGQGLEWMGWINPNSGGTNYAQKFQGRVTMTRDTSTSTVYMELSSLRSEDTAVYYCARDQWDGYNSGYFDYWGQGTLVTVSS
VL: B10 VL with G28T, R30N, N31D, A50S, S53T, Q55H, S91A, R93S, Y96W, L104V
notes: scFv
B12: Polypeptide No. 25 (scFv, V domains shown)
VH: QVQLVQSGAEVKKPGASVKVSCKASGYTFTGYYMHWVRQAPGQGLEWMGRINPNGGSTTYAQKFQGRVTMTRDTSTSTVYMELSSLRSEDTAVYYCARDDFYYYYLDFWGKGTTVTVSS
VL: B10 VL with G28S, R30N, N31D, S53N, S91G, R93S, Y96P, L104V
notes: scFv
B13: Polypeptide No. 22 (scFv, V domains shown)
VH: QVQLVQSGAEVKKPGASVKVSCKASGYTFTDYYIHWVRQAPGQGLEWMGWINPNSGGTNYAQEFQGRVTMTRDTSTSTVYMELSSLRSEDTAVYYCARDHRIAVAGSYFDYWGQGTLVTVSS
VL: B10 VL with Q27R, G28S, N31T, S56T, R93S
notes: scFv
B14: Polypeptide No. 221 (scFv, V domains shown)
VH: QVQLVQSGAEVKKPGASVKVSCKASGYTFTDNYMHWVRQAPGQGLEWMGWMTPDSNNTGFAQNFQGRVTMTRDTSTSTVYMELSSLRSEDTAVYYCALGDGPFGMDVWGQGTTVTVSS
VL: B1 VL with S55G, N58Y, T99G, P101I, L109V
notes: scFv
B15: Polypeptide No. 202 (scFv, V domains shown)
VH: QVQLVQSGAEVKKPGASVKVSCKASGYTFTNYYMHWVRQAPGQGLEWMGVINPSGGSTNYAQKFQGRVTMTRDTSTSTVYMELSSLRSEDTAVYYCARAGVGAFHIWGQGTMVTVSS
VL: DIQMTQSPSSLSASVGDRVTITCRASQSIRSWLAWYQQKPGKAPKLLIYDASNLETGVPSRFSGSGSGTDFTLTISSLQPEDFATYYCQQIYSLPRTFGQGTKVEIKR
notes: scFv
B16: Polypeptide No. 203 (scFv, V domains shown)
VH: QVQLVQSGAEVKKPGSSVKVSCKASGYTLTELSMHWVRQAPGQGLEWMGRIIPISGTANYAQKFQGRVTITADESTSTAYMELSSLRSEDTAVYYCARAARYCSSTSCYWRDGMDVWGQGTTVTVSS
VL: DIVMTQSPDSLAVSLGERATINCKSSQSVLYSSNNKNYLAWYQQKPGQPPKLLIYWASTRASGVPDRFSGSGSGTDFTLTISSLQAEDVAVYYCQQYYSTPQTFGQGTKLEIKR
notes: scFv
B17: Polypeptide No. 216 (scFv, V domains shown)
VH: QVQLVQSGAEVKKPGSSVKVSCKASGNTFTMYYMHWVRQAPGQGLEWVGAIIPISGTVIYARKFQGRVTITADESTSTAYMELSSLRSEDTAVYYCARLSGGRMYDAFDIWGQGTTVTVSS
VL: not shown
notes: scFv
B18: Polypeptide No. 217 (scFv, V domains shown)
VH: QVQLVQSGAEVKKPGSSVKVSCKASGYTFTTFYLHWVRQAPGQGLEWIGGIIPMSGTANYAQKFQGRVTITADESTSTAYMELSSLRSEDTAVYYCASGGENGMDVWGQGTTVTVSS
VL: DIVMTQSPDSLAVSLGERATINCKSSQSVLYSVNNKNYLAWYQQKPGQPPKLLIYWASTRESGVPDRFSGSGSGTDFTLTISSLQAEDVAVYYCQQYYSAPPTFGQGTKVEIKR
notes: scFv
B19: Polypeptide No. 227 (scFv, V domains shown)
VH: QVQLVQSGAEVKKPGSSVKVSCKASGYTLNELFMHWVRQAPGQGLEWVGGIIPMSGTTFYAQTFQGRVTITADESTSTAYMELSSLRSEDTAVYYCAKGVRQYSYGRYYYGMDVWGQGTLVTVSS
VL: DIQMTQSPSSLSASVGDRVTITCRASQSVSSYLNWYQQKPGKAPKLLIYGASNLQSGVPSRFSGSGSGTDFTLTISSLQPEDFATYYCQQSYTTPWTFGQGTRLEIKR
notes: scFv
B20: Polypeptide No. 209 (scFv, V domains shown)
VH: EVQLLESGGGLVQPGGSLRLSCAASGFAFSSYVLHWVRQAPGKGLEWVAGIWVDGHNKDYADSVKGRFTISRDNSKNTLYLQMNSLRAEDTAVYYCAREFGAAGSFQHWGQGTLVTVSS
VL: B15 VL with R30S, S31T, N53K, I91S, S93T, L94T, R96Y
notes: scFv

Target: T1, huCD33-G69-Fc recombinant protein (human, UniProt P20138 18-259);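 also: scFvs from periplasmic extracts captured on biosensors via anti-V5 antibody, exposed to recombinant huCD33 variants for 2 min, 5 min dissociation, scored as binding, no binding or ambiguous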
T1 construct: extracellular domain; also called CD33 R69G
Experiment: BLI
Method: (§1) Discovered scFvs were analyzed for binding to huCD33-R69-His or huCD33-G69-Fc recombinant proteins (for anti-CD33 scFvs; for CLL-1 scFvs, huCLL1-K244-Avi-Tev-His or huCLL1-Q244-Avi-Tev-His were used; for FLT3, huFLT3-T227-His or huFLT3-M227-Fc were used) using BLI on a ForteBio Octet HTX instrument. Streptavidin-coated biosensors were loaded with biotinylated anti-V5 tag monoclonal antibody for 5 min and were then quenched and blocked with 20 μM amine-PEG2-Biotin for 5 min. scFvs were captured on biosensors from scFv clone periplasmic extracts. huCD33 (or huCLL-1, or huFLT3) proteins were then associated with the captured scFvs for 2 minutes, followed by dissociation with buffer (1×HBST [10 mM HEPES pH 7.4, 150 mM NaCl, 0.05% Tween-20], 1 g/L BSA) for 5 minutes. […] Data was fitted with 1:1 Langmuir equation and off-rate values were reported.

T1 sequence (P20138 18-259 R69G): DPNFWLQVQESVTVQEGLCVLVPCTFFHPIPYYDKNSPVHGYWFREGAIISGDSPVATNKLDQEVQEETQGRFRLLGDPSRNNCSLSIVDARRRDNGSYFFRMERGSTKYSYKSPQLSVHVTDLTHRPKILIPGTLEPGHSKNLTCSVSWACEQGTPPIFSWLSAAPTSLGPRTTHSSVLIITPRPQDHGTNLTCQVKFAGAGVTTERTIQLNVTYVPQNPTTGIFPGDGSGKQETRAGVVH

binding result | Binder
no binding | B1
no binding | B2
no binding | B3
no binding | B4
no binding | B5
no binding | B6
no binding | B7
no binding | B8
no binding | B9
no binding | B10
no binding | B11
no binding | B12
no binding | B13

Target: T2, huCD33-R69 stably expressed on Jurkat cells (human, UniProt P20138 18-364)
T2 construct: whole, on cells; >200,000 receptors per cell; also called CD33 WT; CD33^ARG69
Experiment: FACS on cells;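 as to geometric mean MFI fold change over Jurkat parental: fixed Jurkat cells bearing either CD33 variant, barcoded by dye, exposed to myc-tagged scFv periplasmic extracts, detected with anti-myc PE antibody and read by flow cytometry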
Method: (§2) Jurkat cells were engineered to stably express either the huCD33-R69 or huCD33-G69 variant at >200,000 receptors per cell. Parental, huCD33-R69, and huCD33-G69 Jurkat cell lines were stained with differing levels of CellTrace Violet Cell Proliferation Kit (ThermoFisher, cat. #C34557) to barcode each cell line. Barcoded Jurkat cell lines were fixed with paraformaldehyde and incubated with myc-labeled scFv periplasmic extracts and a secondary anti-myc PE-conjugated monoclonal antibody. Appropriate positive and negative controls were used. Stained cells were analyzed by flow cytometry (CytoFLEX, Beckman Coulter, Inc.) and binding was assessed by change in PE mean fluorescence intensity (MFI) of the barcoded cell populations.

T2 sequence (P20138 18-364): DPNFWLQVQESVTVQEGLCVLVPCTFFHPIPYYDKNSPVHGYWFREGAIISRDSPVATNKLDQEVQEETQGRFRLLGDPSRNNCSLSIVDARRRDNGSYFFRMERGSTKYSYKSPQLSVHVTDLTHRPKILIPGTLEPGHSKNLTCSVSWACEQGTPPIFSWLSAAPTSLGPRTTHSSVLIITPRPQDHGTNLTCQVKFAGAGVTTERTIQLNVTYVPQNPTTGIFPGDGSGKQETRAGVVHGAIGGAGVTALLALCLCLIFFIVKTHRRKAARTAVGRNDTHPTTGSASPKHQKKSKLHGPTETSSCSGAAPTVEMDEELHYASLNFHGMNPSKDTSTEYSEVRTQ

geometric mean MFI fold change over Jurkat parental [fold] | Binder
2 to 10 | B1
2 to 10 | B2
2 to 10 | B3
2 to 10 | B4
2 to 10 | B5
> 30 | B6
2 to 10 | B7
2 to 10 | B8
> 30 | B9
10 to 30 | B10
> 30 | B11
> 30 | B12
2 to 10 | B13

Target: T3, huCD33-G69 stably expressed on Jurkat cells (human, UniProt P20138 18-364)
T3 construct: whole, on cells; >200,000 receptors per cell; also called CD33 Mutant; CD33 R69G
Experiment: FACS on cells;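 as to geometric mean MFI fold change over Jurkat parental: fixed Jurkat cells bearing either CD33 variant, barcoded by dye, exposed to myc-tagged scFv periplasmic extracts, detected with anti-myc PE antibody and read by flow cytometry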
Method: as §2

T3 sequence (P20138 18-364 R69G): as the sequence (P20138 18-364) above, with R52G counted along it

geometric mean MFI fold change over Jurkat parental [fold] | Binder
< 2 | B1
< 2 | B2
< 2 | B3
< 2 | B4
< 2 | B5
< 2 | B6
< 2 | B7
< 2 | B8
< 2 | B9
< 2 | B10
< 2 | B11
< 2 | B12
< 2 | B13

Target: T4, huFLT3-M227 stably expressed on Ramos cells (human, UniProt P36888 27-993)
T4 construct: whole, on cells; also called FLT3 Mutant
Experiment: FACS on cells;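 as to geometric mean MFI fold change over Jurkat parental: fixed Jurkat cells bearing either CD33 variant, barcoded by dye, exposed to myc-tagged scFv periplasmic extracts, detected with anti-myc PE antibody and read by flow cytometry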
Method: (§3) For FLT3, Ramos cells were engineered to stably express either the huFLT3-T227 or huFLT3-M227 variant at >200,000 receptors per cell. Parental, huFLT3-T227, and huFLT3-M227 Ramos cell lines were stained with differing levels of CellTrace Violet Cell Proliferation Kit (ThermoFisher, cat. #C34557) to barcode each cell line. Barcoded Ramos cell lines were fixed with paraformaldehyde and incubated with myc-labeled scFv periplasmic extracts and a secondary anti-myc PE-conjugated monoclonal antibody. Appropriate positive and negative controls were used. Stained cells were analyzed by flow cytometry (CytoFLEX, Beckman Coulter, Inc.) and binding was assessed by change in PE mean fluorescence intensity (MFI) of the barcoded cell populations.

FACS geometric mean fold change over Jurkat parental [fold] | Binder
2 to 10 | B14
2 to 10 | B15

Target: T5, huFLT3-T227 stably expressed on Ramos cells (human, UniProt P36888 27-993)
T5 construct: whole, on cells; also called FLT3 WT
Experiment: FACS on cells;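 as to geometric mean MFI fold change over Jurkat parental: fixed Jurkat cells bearing either CD33 variant, barcoded by dye, exposed to myc-tagged scFv periplasmic extracts, detected with anti-myc PE antibody and read by flow cytometry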
Method: as §3

FACS geometric mean fold change over Jurkat parental [fold] | Binder
< 2 | B14
< 2 | B16
< 2 | B15

Target: T6, huFLT3-M227-Fc (human, UniProt P36888 27-543)
T6 construct: extracellular domain; also called FLT3 Mutant
Experiment: BLI
Method: as §1

binding result | Binder
binds | B17
binds | B18
binds | B19
binds | B20

Target: T7, huFLT3-T227-His (human, UniProt P36888 27-543)
T7 construct: extracellular domain; also called FLT3 WT
Experiment: BLI
Method: as §1

binding result | Binder
no binding | B14
binds | B17
binds | B18
binds | B19
no binding | B16
binds | B20
no binding | B15
